Results published in PMC8148087.

Biological target: FAM-HLA (model peptide HLA attached to a FAM fluorophore)
Experiment: fluorescence polarisation

| Kd [µM] | Substance |
| --- | --- |
| 8 | E. coli DnaK Y145W (from UniProt P0A6Y8 1-638) (natural protein) |
| 9 | E. coli DnaK Y145A (from UniProt P0A6Y8 1-638) (natural protein) |
| 9 | E. coli DnaK, wild type (from UniProt P0A6Y8 1-638) (natural protein) |
| 5 | human heat shock cognate protein 70 (Hsc70), wild type (from UniProt P11142 1-646) (natural protein) |

Biological target: FAM-HLA (model peptide HLA attached to a FAM fluorophore)
Experiment: fluorescence polarisation
Remark: another data set of the same source

| Kd [µM] | Substance |
| --- | --- |
| 4 | E. coli DnaK Y145W (from UniProt P0A6Y8 1-638) (natural protein) |
| > 30 | E. coli DnaK Y145A (from UniProt P0A6Y8 1-638) (natural protein) |
| > 30 | E. coli DnaK, wild type (from UniProt P0A6Y8 1-638) (natural protein) |
| 26 | human heat shock cognate protein 70 (Hsc70), wild type (from UniProt P11142 1-646) (natural protein) |
| 4 | human Hsc70 Y149A (from UniProt P11142 1-646) (natural protein) |
